The source of these data is patent US20090022728A1 (RINAT NEUROSCIENCE, published 2009).

Where a chain is given by its changes, count along the chain named. Numbers in names are those of the source. Where no end group is shown, it is not given here.

Assay [1] concerns the target T1, Aβ1-40 peptide.
T1 construct: synthetic peptide, not biotinylated; also called 1-40 (WT); beta amyloid 1-40
The experiment in a line: SPR, mAb on CM5 chip, peptide flowed. The method, then: Affinities of 9TL monoclonal antibody were determined using the BIAcore3000™ surface plasmon resonance (SPR) system (BIAcore, INC, Piscaway N.J.). […] CM5 chips were activated with N-ethyl-N′-(3-dimethylaminopropyl)-carbodiimide hydrochloride (EDC) and N-hydroxysuccinimide (NHS) according to the supplier's instructions. Antibody 9TL or its variants was diluted into 10 mM sodium acetate pH 4.0 or 5.0 and injected over the activated chip at a concentration of 0.005 mg/mL. Using variable flow time across the individual chip channels, a range of antibody density was achieved: 1000-2000 or 2000-3000 response units (RU). The chip was blocked with ethanolamine. […] HBS-EP buffer (0.01M HEPES, pH 7.4, 0.15 M NaCl, 3 mM EDTA, 0.005% Surfactant P20) was used as running buffer for all the BIAcore assays. […] Kinetic association rates (kₒₙ) and dissociation rates (koff) were obtained simultaneously by fitting the data to a 1:1 Langmuir binding model (Karlsson, R. Roos, H. Fagerstam, L. Petersson, B. (1994). Methods Enzymology 6. 99-110) using the BIAevaluation program. Equilibrium dissociation constant (KD) values were calculated as koff/kₒₙ.
For orientation: Surface plasmon resonance follows binding to a sensor surface in real time, without labels.

Assay [2] deals with T2, biotinylated Aβ1-40 peptide (biotinylated (N-biotinylated in Example 7)).
T2 construct: captured on streptavidin (SA) chip; also called Biotinylated Aβ peptide 1-40; Aβ1-40 on SA chip
T2 sequence (peptide, as listed by the source): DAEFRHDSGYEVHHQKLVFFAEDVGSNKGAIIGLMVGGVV
Description: SPR, Fab over biotinylated peptide on streptavidin chip.

Assay [3] concerns the target T3, biotinylated Aβ1-42 peptide (biotinylated (N-biotinylated in Example 7)).
T3 construct: captured on streptavidin chip; also called N-biotinylated Aβ1-42
The assay is described as above.

In assay [4] the target is T4, biotinylated Aβ22-37 peptide (also: biotinylated, site not given here).
T4 peptide: EDVGSNKGAIIGLMVG
The assay is described as above.

In assay [5] the target is T1, Aβ1-40 peptide. Description: ELISA, nonbiotinylated peptide on plate. The method, then: (§1) ELISA was used for measuring binding of antibody 6G and variants to nonbiotinylated Aβ peptides. NUNC maxisorp plates were coated with 2.5 ug/ml of Aβ peptides in PBS pH 7.4 for more than 1 hour at 4° C. Plates were blocked with 1% BSA in PBS buffer pH 7.4. Primary antibody (from cell supernatants, serum containing anti-Aβ antibody, or purified full antibody or Fabs at desired dilution) was incubated with the immobilized Aβ peptides for 1 h at room temperature. After washing, the plates were incubated with secondary antibody, a HRP conjugated goat anti-human kappa chain antibody (MP Biomedicals, 55233) at 1:5000 dilution. After washing, bound secondary antibody was measured by adding TMB substrate (KPL, 50-76-02, 50-65-02). The HRP reaction was stopped by adding 1M phosphoric acid and absorbance at 450 nm was measured.
(§2) All amino acid substitutions of the variants shown in Table 8 are described relative to the sequence of 6G. Binding was determined by ELISA described above with nonbiotinylated Aβ₁₋₄₀ or Aβ₁₋₄₂ immobilized on the surface of an ELISA plate.

Assay [6] deals with T5, Aβ1-42 peptide.
T5 construct: also called 1-42 (WT)
T5 sequence (peptide, as listed by the source): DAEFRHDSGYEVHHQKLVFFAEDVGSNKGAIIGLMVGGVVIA
Description: ELISA, nonbiotinylated peptide on plate. The method, then: as §1, §2
A general note: In an ELISA, binding on a coated surface is turned into a signal by an enzyme label.

B1: antibody 9TL (full monoclonal antibody) (antibody, human IgG2, kappa, V domains shown)
VH: QVQLVQSGAEVKKPGASVKVSCKASGYYTEAYYIHWVRQAPGQGLEWMGRIDPATGNTKYAPRLQDRVTMTRDTSTSTVYMELSSLRSEDTAVYYCASLYSLPVYWGQGTTVTVSS
VL: DVVMTQSPLSLPVTLGQPASISCKSSQSLLYSDAKTYLNWFQQRPGQSPRRLIYQISRLDPGVPDRFSGSGSGTDFTLKISRVEAEDVGVYYCLQGTHYPVLFGQGTRLEIKR
notes: human IgG2a constant region with A330P331 to S330S331; human kappa light chain; also called 9TL mAb
As usually defined, the Kd is a measure of binding affinity in units of concentration. A low value points to higher affinity. A word on the koff: it is the rate constant with which the complex falls apart. Read a high koff as fast dissociation. The kon is the second-order rate constant of association. Low readings indicate slow association, high ones fast association. In assay [1], B1 displayed a Kd of 0.9 nM, an off-rate constant (koff) of 0.000389 s⁻¹ and a kon of 425000 M⁻¹ s⁻¹.

B2: 6G Fab fragment (Fab, V domains shown)
VH: QVQLVQSGAEVKKPGASVKVSCKASGYTFTTYAIHWVRQAPGQGLEWMGFTSPYSGVSNYNQKFKGRVTMTRDTSTSTVYMELSSLRSEDTAVYYCARFDNYDRGYVRDYWGQGTLVTVS
VL: DIVMTQSPDSLAVSLGERATINCRASESVDNDRISFLNWYQQKPGQPPKLLIYAATKQGTGVPDRFSGSGSGTDFTLTISSLQAEDVAVYYCQQSKEFPWSFGGGTKVEIKR
notes: Fab from E. coli with human IgG2 CH1 (P01859) and human kappa constant domain (CAA09181)
Take B2: the values for the Kd in assay [2], in assay [3] and in assay [4] were 2 nM, 80 nM and 11 nM, respectively. Further, the koff stood at 0.0007 s⁻¹ in assay [2], 0.0016 s⁻¹ in assay [3] and 0.0039 s⁻¹ in assay [4]. For the same molecule, the kon in assay [2] worked out at 300000 M⁻¹ s⁻¹; in assay [3], 18000 M⁻¹ s⁻¹; in assay [4], 360000 M⁻¹ s⁻¹.

B3: 6G light chain variant 5H (E97R) (antibody, V domains shown)
VH: B2 VH
VL: B2 VL with E97R
Regarding B3, the “A450 ELISA” value in assay [5] turned out to be 2.6 A450; in assay [6], 0.85 A450.

B4: 6G light chain variant 6D (E97T) (antibody, V domains shown)
VH: B2 VH
VL: B2 VL with E97T
For B4, the entries for the “A450 ELISA” value in assay [5] and in assay [6] were 2.41 A450 and 1.34 A450, respectively.

B5: 6G light chain variant 6C (E97G) (antibody, V domains shown)
VH: B2 VH
VL: B2 VL with E97G
Turning to B5, the “A450 ELISA” value in assay [5] and in assay [6] was 0.05 A450 throughout.

B6: 6G light chain variant 8G (E97V) (antibody, V domains shown)
VH: B2 VH
VL: B2 VL with E97V
Consider B6, for which the entries for the “A450 ELISA” value in assay [5] and in assay [6] were 2.6 A450 and 0.9 A450, respectively.
